Experimental data published in the supplement of paper PMC10567573.

B1: MYBL2 (parent)
chain: VKKSCWTEEEDRIICEAHKVLGNR
B2: SETD8 (parent)
chain: GKQAPRKKAQGKTQQNRKLTDFYP

Variants of: B1
Assay: protein stability index of a GFP-peptide fusion (GPS, HEK-293T) (PSI 1-6); higher = more stable
Conditions: c terminus: a fixed tail appended
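Also: lentivirally expressed fusions sorted by FACS into six bins by GFP to DsRed ratio, PSI derived from sequencing read proportions per bin multiplied by bin number.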

Protein stability index, by site and new letter:
A17: R 3.51; S 3.36; T 2.92; V 2.37; W 2.55; Y 2.39
H18: A 3.47; C 1.8; D 4.01; E 3.83; F 2.63; G 3.2; I 2.91; K 3.73; L 2.45; M 2.73; N 3.88; P 4; Q 3.35; R 2.69; S 3.81; T 3.79; V 2.2; W 2.18; Y 2.56
K19: A 3.21; C 3.3; D 3.86; E 4.27; F 2.19; G 3.67; H 2.99; I 2.03; L 2.69; M 2.93; N 3.41; P 3.28; Q 4.09; R 3.23; S 4.02; T 3.44; V 3.5; W 1.91; Y 2.59
V20: A 3.51; C 3.84; D 4.37; E 4.03; F 2.86; G 3.67; H 2.55; I 2.75; K 3.67; L 3.15; M 3.15; N 3.99; P 3.72; Q 4.5; R 3.59; S 3.55; T 3.34; W 2.04; Y 3.12
L21: A 3.42; C 3.66; D 4.36; E 3.83; F 2.94; G 3.44; H 3.53; I 3.15; K 3.26; M 3.79; N 3.83; P 3.8; Q 3.64; S 3.3; T 3.44; V 3.35; W 3.33; Y 3.71
G22: A 3.17; C 3.03; D 3.38; E 3.96; F 2.54; H 3.11; I 2.58; K 3.11; L 2.64; M 2.89; N 3.32; P 3.54; Q 1.97; R 2.99; S 2.7; T 2.83; V 2.86; W 2.28; Y 2.79
N23: A 3.08; C 3.23; D 3.64; E 3.96; F 2.21; G 2.57; H 3.71; I 2.63; K 2.59; L 2.35; M 2.1; P 3.77; Q 2.95; R 3.64; S 2.9; T 3.41; V 2.93; W 2.59; Y 3.01
R24: A 3.42; C 3.3; D 4.19; E 4.05; F 2.4; G 4.11; H 3.49; I 2.69; K 4.21; L 3.32; M 2.86; N 3.59; P 3.7; Q 4.15; S 3.63; T 3.95; V 3.47; W 1.86; Y 3.06

Variants of: B2
Assay: as above
Conditions: c terminus: a fixed tail appended

Protein stability index, by site and new letter:
G1: A 3.04; C 2.98; D 2.68; E 3.79; F 3.39; H 3; I 2.74; K 3.75; L 2.66; M 2.6; N 2.88; P 4.24; Q 3.8; R 2.94; S 3.17; T 3.2; V 3.12; Y 3.1
K2: A 3.09; C 2.92; F 3.34; G 2.67; L 4.09; M 3.05; N 3.11; Q 3.4; R 3.07; T 2.46; V 3.99
